T1: Human RNF43 ECD with Fc region fused on its C-terminus (human)
T1 construct: also called RNF43-Fc
T1 chain: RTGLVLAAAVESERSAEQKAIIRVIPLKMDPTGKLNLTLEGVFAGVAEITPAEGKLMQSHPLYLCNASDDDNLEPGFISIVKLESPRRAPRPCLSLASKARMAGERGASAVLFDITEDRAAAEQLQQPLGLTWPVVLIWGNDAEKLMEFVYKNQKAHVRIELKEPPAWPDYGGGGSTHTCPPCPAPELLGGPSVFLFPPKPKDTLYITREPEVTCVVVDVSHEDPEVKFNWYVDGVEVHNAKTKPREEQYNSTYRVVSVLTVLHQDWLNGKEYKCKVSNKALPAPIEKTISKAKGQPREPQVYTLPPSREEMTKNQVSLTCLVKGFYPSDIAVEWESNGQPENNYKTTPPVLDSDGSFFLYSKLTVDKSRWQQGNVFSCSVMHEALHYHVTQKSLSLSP

B1: RNN0242nn with rabbit constant region (antibody)
heavy: QQQLEEYGGDLVQPEGSLTLTCKASGLDFSSSYWMCWVRQAPGKGLEWIACIYTGSSGSTSYASWAKGRFTISKTSSTTVTLQMTSLTAADTATYFCARDYDYTAYAYGIMSLWGPGTLVTVSSGQPKAPSVFPLAPCCGDTPSSTVTLGCLVKGYLPEPVTVTWNSGTLTNGVRTFPSVRQSSGLYSLSSVVSVTSSSQPVTCNVAHPATNTKVDKTVAPSTCSKPMCPPPELLGGPSVFIFPPKPKDTLMISRTPEVTCVVVDVSQDDPEVQFTWYINNEQVRTARPPLREQQFNSTIRVVSTLPIAHQDWLRGKEFKCKVHNKALPAPIEKTISKARGQPLEPKVYTMGPPREELSSRSVSLTCMINGFYPSDISVEWEKNGKAEDNYKTTPTVLDSDGSYFLYSKLSVPTSEWQRGDVFTCSVMHEALHNHYTQKSISRSPGK
light: AEIVMTQTPSSKSAAVGDTVTIKCQASQSITSYLSWYQQKPGQPPKLLIYRASTLASGVPSRFKGSGSGTQFTLTISDLECADAATYYCQSNYGSYSTNYGVTFGGGTKVEIKRDPVAPTVLIFPPAADQVATGTVTIVCVANKYFPDVTVTWEVDGTTQTTGIENSKTPQNSADCTYNLSSTLTLTSTQYNSHKEYTCKVTQGTTSVVQSFNRGDC
B2: RNN0192nn with rabbit constant region (antibody)
heavy: QEQLVESGGGLVQPEGSLTLTCTASGFSFSSRYYMCWVRQAPGKGLEWIGCIYTGSGSTYYASWAKGRVTISKTSSTTVTLQMTSLTAADTATYFCAREAGSFNLWGPGTLVTVSSGQPKAPSVFPLAPCCGDTPSSTVTLGCLVKGYLPEPVTVTWNSGTLTNGVRTFPSVRQSSGLYSLSSVVSVTSSSQPVTCNVAHPATNTKVDKTVAPSTCSKPMCPPPELLGGPSVFIFPPKPKDTLMISRTPEVTCVVVDVSQDDPEVQFTWYINNEQVRTARPPLREQQFNSTIRVVSTLPIAHQDWLRGKEFKCKVHNKALPAPIEKTISKARGQPLEPKVYTMGPPREELSSRSVSLTCMINGFYPSDISVEWEKNGKAEDNYKTTPTVLDSDGSYFLYSKLSVPTSEWQRGDVFTCSVMHEALHNHYTQKSISRSPGK
light: DVVMTQTPASVSEPVGGTVTIKCQASQSIYSGLAWYQQKPGQPPKLLIYSASKLASGVPSRFKGSGSGTEYTLTISDLECADAATYYCQNYYYGISNGWTFGGGTKVEIKRDPVAPTVLIFPPAADQVATGTVTIVCVANKYFPDVTVTWEVDGTTQTTGIENSKTPQNSADCTYNLSSTLTLTSTQYNSHKEYTCKVTQGTTSVVQSFNRGDC
B3: RNN0187jj with rabbit constant region (antibody)
heavy: QSLEESGGDLVKPGASLTLTCTASGFSFNSAYYMCWVRQAPGKGLEWIGCIYTGSGSTYYASWAKGRFTISKTSSTTVTLQMTSLTVADTATYFCARSGVSTYYTLWGPGTLVTVSSGQPKAPSVFPLAPCCGDTPSSTVTLGCLVKGYLPEPVTVTWNSGTLTNGVRTFPSVRQSSGLYSLSSVVSVTSSSQPVTCNVAHPATNTKVDKTVAPSTCSKPMCPPPELLGGPSVFIFPPKPKDTLMISRTPEVTCVVVDVSQDDPEVQFTWYINNEQVRTARPPLREQQFNSTIRVVSTLPIAHQDWLRGKEFKCKVHNKALPAPIEKTISKARGQPLEPKVYTMGPPREELSSRSVSLTCMINGFYPSDISVEWEKNGKAEDNYKTTPTVLDSDGSYFLYSKLSVPTSEWQRGDVFTCSVMHEALHNHYTQKSISRSPGK
light: DVVMTQTPSSVSAAVGGTVTIKCQASQSIYSGLAWYQQKPGQPPKLLIYGASTLASGVPSRFKGSGSGTEYTLTISGVQCDDAATYYCQNNYYTPSNGWAFGGGTKVEIKRDPVAPTVLIFPPAADQVATGTVTIVCVANKYFPDVTVTWEVDGTTQTTGIENSKTPQNSADCTYNLSSTLTLTSTQYNSHKEYTCKVTQGTTSVVQSFNRGDC
B4: RNN0207ii with rabbit constant region (antibody)
heavy: QEQLEESGGRLVTPGGSLTLTCTASGFSLSSYVISWVRQAPGEGLEYIGYVSTGGSPYYASWAKGRFTISRTSTAVDLKMTSLTASDTATYFCARYGYLDYSGLDLWGQGTLVTVSSGQPKAPSVFPLAPCCGDTPSSTVTLGCLVKGYLPEPVTVTWNSGTLTNGVRTFPSVRQSSGLYSLSSVVSVTSSSQPVTCNVAHPATNTKVDKTVAPSTCSKPMCPPPELLGGPSVFIFPPKPKDTLMISRTPEVTCVVVDVSQDDPEVQFTWYINNEQVRTARPPLREQQFNSTIRVVSTLPIAHQDWLRGKEFKCKVHNKALPAPIEKTISKARGQPLEPKVYTMGPPREELSSRSVSLTCMINGFYPSDISVEWEKNGKAEDNYKTTPTVLDSDGSYFLYSKLSVPTSEWQRGDVFTCSVMHEALHNHYTQKSISRSPGK
light: AQVLTQTPSSTSTAVGGTVTINCQSSQSVYEYNHLSWFQQKPGQPPKLLIYGASTLASGVPSRFKGSGSGTQFTLTISDLECDDAATYYCQGAYYGVVDTFGGGTKVEIKRDPVAPTVLIFPPAADQVATGTVTIVCVANKYFPDVTVTWEVDGTTQTTGIENSKTPQNSADCTYNLSSTLTLTSTQYNSHKEYTCKVTQGTTSVVQSFNRGDC
B5: RNN0246jj with rabbit constant region (antibody)
heavy: QSVEESGGRLVTPDETLTLTCTVSGFSLNNYHMIWVRQAPGEGLEYIGFINTGGSAYYANWAKGRFTISKTSTTVDLKITSPTTEDTATYFCASVSWRTDYSFELWGPGTLVTVSSGQPKAPSVFPLAPCCGDTPSSTVTLGCLVKGYLPEPVTVTWNSGTLTNGVRTFPSVRQSSGLYSLSSVVSVTSSSQPVTCNVAHPATNTKVDKTVAPSTCSKPMCPPPELLGGPSVFIFPPKPKDTLMISRTPEVTCVVVDVSQDDPEVQFTWYINNEQVRTARPPLREQQFNSTIRVVSTLPIAHQDWLRGKEFKCKVHNKALPAPIEKTISKARGQPLEPKVYTMGPPREELSSRSVSLTCMINGFYPSDISVEWEKNGKAEDNYKTTPTVLDSDGSYFLYSKLSVPTSEWQRGDVFTCSVMHEALHNHYTQKSISRSPGK
light: AQVLTQTPSPVSAAVGGTVTISCQASQSVYANNRLAWFQQKPGQPPKLLIYSASTLASGVPSRFKGSGSGTQFTLTISGVQCDDAATYYCAGAYTGNIYTFGGGTKVEIKRDPVAPTVLIFPPAADQVATGTVTIVCVANKYFPDVTVTWEVDGTTQTTGIENSKTPQNSADCTYNLSSTLTLTSTQYNSHKEYTCKVTQGTTSVVQSFNRGDC
B6: RNN0193jj with rabbit constant region (antibody)
heavy: QSLEESGGDLVKPGASLTLTCTASGFSFSNNYWICWVRQAPGKGPEWIACIYTGDGDTDYASWAKGRFTISKTSSTTVTLQMTSLTAADTATYFCAREAGTVDGVWNYVFNLWGPGTLVTVSSGQPKAPSVFPLAPCCGDTPSSTVTLGCLVKGYLPEPVTVTWNSGTLTNGVRTFPSVRQSSGLYSLSSVVSVTSSSQPVTCNVAHPATNTKVDKTVAPSTCSKPMCPPPELLGGPSVFIFPPKPKDTLMISRTPEVTCVVVDVSQDDPEVQFTWYINNEQVRTARPPLREQQFNSTIRVVSTLPIAHQDWLRGKEFKCKVHNKALPAPIEKTISKARGQPLEPKVYTMGPPREELSSRSVSLTCMINGFYPSDISVEWEKNGKAEDNYKTTPTVLDSDGSYFLYSKLSVPTSEWQRGDVFTCSVMHEALHNHYTQKSISRSPGK
light: AQVLTQTPSPVSAAVGGTVTISCQSSQSVYNDNLAWFQQKPGQPPKLLIYDASTLASGVPSRFKGSGSGTQFTLTISKLQCDDAATYYCQGVYIGHIFTFGGGTKVEIKRDPVAPTVLIFPPAADQVATGTVTIVCVANKYFPDVTVTWEVDGTTQTTGIENSKTPQNSADCTYNLSSTLTLTSTQYNSHKEYTCKVTQGTTSVVQSFNRGDC

Biological target: T1, Human RNF43 ECD with Fc region fused on …
Assay: competition ELISA on coated RNF43-Fc; first antibody unlabelled at 10x its EC50, second (reference) antibody biotinylated RNN0207ii at its EC50
Experimental: (§1) EC50 concentration for the binding of each anti-RNF43 monospecific antibody to RNF43-Fc (described in Example 2) was first determined by ELISA assay, using the biotinylated antibodies. In brief, RNF43-Fc at 5 micro g/mL or 1 micro g/mL was coated on Maxisorp plate (NUNC) at 4 degrees C. overnight. The coated plate was then washed with PBS-T, followed by blocking with Blocking One solution (Nacalai Tesque) for 2 hours at room temperature. Serially diluted, biotinylated anti-RNF43 monospecific antibody was then added and incubated for 1 hour at room temperature. After washing with PBS-T, StAv-HRP (PIERCE) was added and incubated for 1 hour at room temperature. After washing with PBS-T, ABTS Peroxidase substrate (SeraCare Life Sciences) was added and signal intensity was measured using Multiskan™ GO Microplate Spectrophotometer. EC50 concentration for the binding of the anti-RNF43 monospecific antibody to RNF43-Fc was calculated using Non-linear regression 4-parameter fit. The normalized absorbance at 405 nm/570 nm measured when EC50 concentration of anti-RNF43 antibodies was applied is denoted as AO.
(§2) To evaluate binding competition between the anti-RNF43 monospecific antibodies, ELISA assay with similar setting was conducted. RNF43-Fc was first coated in Maxisorp plate overnight. […] After washing with PBS-T, ABTS Peroxidase substrate was added and signal intensity was measured using Multiskan™ GO Microplate Spectrophotometer. The normalized absorbance at 405 nm/570 nm is denoted as A.

binding inhibition (%) | Binder
1.62 | B1
-6.42 | B2
1.89 | B3
65.9 | B4
-0.14 | B5
-1.42 | B6

Biological target: T1, Human RNF43 ECD with Fc region fused on …
Assay: competition ELISA on coated RNF43-Fc; first antibody unlabelled at 10x its EC50, second (reference) antibody biotinylated RNN0192nn at its EC50
Experimental: as §1, §2

binding inhibition (%) | Binder
9.66 | B1
88.5 | B2
60.6 | B3
-3.55 | B4
-0.13 | B5
-15.2 | B6

Biological target: T1, Human RNF43 ECD with Fc region fused on …
Assay: competition ELISA on coated RNF43-Fc; first antibody unlabelled at 10x its EC50, second (reference) antibody biotinylated RNN0193jj at its EC50
Experimental: as §1, §2

binding inhibition (%) | Binder
12.6 | B1
0.25 | B2
2.35 | B3
1.05 | B4
1.17 | B5
50.2 | B6

Biological target: T1, Human RNF43 ECD with Fc region fused on …
Assay: competition ELISA on coated RNF43-Fc; first antibody unlabelled at 10x its EC50, second (reference) antibody biotinylated RNN0242nn at its EC50
Experimental: as §1, §2

binding inhibition (%) | Binder
86.8 | B1
45.6 | B2
22.3 | B3
-0.71 | B4
22.6 | B5
21.3 | B6

Biological target: T1, Human RNF43 ECD with Fc region fused on …
Assay: competition ELISA on coated RNF43-Fc; first antibody unlabelled at 10x its EC50, second (reference) antibody biotinylated RNN0187jj at its EC50
Experimental: as §1, §2

binding inhibition (%) | Binder
11.4 | B1
91 | B2
30.7 | B3
-0.38 | B4
12.6 | B5
3.21 | B6

Biological target: T1, Human RNF43 ECD with Fc region fused on …
Assay: competition ELISA on coated RNF43-Fc; first antibody unlabelled at 10x its EC50, second (reference) antibody biotinylated RNN0246jj at its EC50
Experimental: as §1, §2

binding inhibition (%) | Binder
74.7 | B1
21.9 | B2
15.1 | B3
-1.38 | B4
29.8 | B5
5.04 | B6
